Paper PMC3047542, “Structure of HsdS Subunit from Thermoanaerobacter tengcongensis Sheds Lights on Mechanism of Dynamic Opening and Closing of Type I Methyltransferase” (PLoS ONE, 2011)

Target: T1, TTE-HsdS (wild type), specificity subunit of the type I methyltransferase from Thermoanaerobacter … (Thermoanaerobacter tengcongensis, UniProt Q8R9Q6 1-398)
T1 construct: HsdS specificity subunit of Thermoanaerobacter tengcongensis, ORF TTE1545, wild type; 398 amino acids (Met1-Leu398), MW 46.5 kDa; Cloned into site 1 of pET-DUET (with N-terminal His tag); source: E. coli BL21 (DE3), co-expressed with TTE-HsdM (wild type or mutant) from pET-DUET; not shown: His tag, N-terminal, kept
T1 sequence (looked up): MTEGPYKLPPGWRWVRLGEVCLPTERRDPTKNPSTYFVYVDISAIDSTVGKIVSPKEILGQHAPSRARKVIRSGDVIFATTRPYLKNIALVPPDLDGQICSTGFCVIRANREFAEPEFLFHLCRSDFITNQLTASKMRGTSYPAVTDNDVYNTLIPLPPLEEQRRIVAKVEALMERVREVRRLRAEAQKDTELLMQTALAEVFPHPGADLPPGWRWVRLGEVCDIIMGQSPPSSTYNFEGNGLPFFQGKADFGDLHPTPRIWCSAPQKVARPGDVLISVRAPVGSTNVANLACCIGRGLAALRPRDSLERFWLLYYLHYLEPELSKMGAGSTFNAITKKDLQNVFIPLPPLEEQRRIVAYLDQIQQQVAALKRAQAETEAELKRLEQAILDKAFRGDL
Assay: AUC; analytical ultracentrifugation of the co-purified wild-type TTE-HsdS/TTE-HsdM complex; molecular weight 165 kDa
Details: both partners purified

- stoichiometry N: 2 HsdM per HsdS
B1: TTE-HsdM (wild type), modification subunit of the type I methyltransferase from Thermoanaerobacter tengcongensis (natural protein, UniProt Q8R9Q4 1-507, looked up)
chain: MNGPQTRESLANEIWRACDIMRRDNNCTGIMEYVEHLAWLLFLRFLDAQEEEWEAQAQIAGRPYTPIIDSEYRWRHWATKDWPADELLAFVHGRLIPYLRSLGGDPLRETIRSLFSERNVIVCASGYNLKDVIQIVNEINFHSQDDIFTVSQVYEELLRRLGNENRLAGEFYTPRPVVRFVVELVDPQIGEAVYDPACGTCGFLVEAYLWMKQKERTIEDHRILQERTFFGQEKKPVPAFLGLVNMMLHGVTVPRVMRRNTLEENIRNVSERFDVVVTNPPFGGTEGRHIQQNFPIQSNATELLFLQHIMKKLKPRDGARCGMVVPEGTLFRGGAFAEVKRDLLEQFNLHTVVSLPPGTFAPYSDVKTALIFFERPGPTKEIWYYELPLPEGLKKFSKGNPIQDEHFEEARKLWRGWDAYRKGLGPVEACLSERSWIVPVEEVKKRGYDLTARNPNRSGGEELPSPVEIVAGLLEKEREILSIMEELSELLENEKGNSSRKNDEEEE
notes: HsdM modification subunit of Thermoanaerobacter tengcongensis, ORF TTE1547, wild type; MW 58.5 kDa; Cloning site 2 of pET-DUET, without tag; Two copies in the M2S1 complex; Expressed alone it was insoluble
